Experimental data taken from patent US20160250307A1 (IMMATICS BIOTECHNOLOGIES, published 2016).

The binders below were run against HLA-A*02 (human) (assay: UV-ligand exchange, anti-b2m ELISA; grade: exchange yield >=75%).

| Binder | peptide exchange yield |
| --- | --- |
| FLFNTENKLLL (also called IDI1-001) | ≥ 75% |
| ALASVIKEL (also called IFT81-001) | ≥ 75% |
| SLLEEFDFHV (also called USO-001) | ≥ 75% |
| SLLGGNIRL (also called ACSL3-001) | ≥ 75% |
| ALADLTGTVV (also called NCST-001) | ≥ 75% |
| YLITSVELL (also called ACSL4-001) | ≥ 75% |
| ALLKVNQEL (also called SAMM-001) | ≥ 75% |
| KLQDFSDQL (also called APOB-004) | ≥ 75% |
| KLAEIVKQV (also called MAPKAPK5-001) | ≥ 75% |
| FLAELAYDL (also called GPC3-001) | ≥ 75% |
| GVMAGDIYSV (also called ADF-012) | ≥ 75% |
| VMAPFTMTI (also called APOB-003) | ≥ 75% |
| ALVEQGFTV (also called APOB-001) | ≥ 75% |
| GLIDTETAMKAV (also called HSD11B1-001) | ≥ 75% |
| VLTEFTREV (also called IPO9-001) | ≥ 75% |
| ALVDTLKFV (also called APOB-002) | ≥ 75% |
| LLYGHTVTV (also called SLC35B2-001) | ≥ 75% |
| SLIDQFFGV (also called USP14-001) | ≥ 75% |

The binders below were run against HLA-A*02 (human) (assay: UV-ligand exchange, anti-b2m ELISA; grade: exchange yield 50%-75%).

| Binder | peptide exchange yield |
| --- | --- |
| AVLGPLGLQEV (also called THT-001) | 50 to 75% |
| SLLEKELESV (also called DRG2-001) | 50 to 75% |
| KLQAGTVFV (also called ALDH1L1-001) | 50 to 75% |
| SLSQELVGV (also called ZNF318-001) | 50 to 75% |
| KMDPVAYRV (also called QAR-001) | 50 to 75% |
| GVYDGEEHSV (also called MAGEB2-001) | 50 to 75% |
| KLLEEATISV (also called DYM-001) | 50 to 75% |
| ALCEENMRGV (also called EEF2-001) | 50 to 75% |
| VLADFGARV (also called C1QTNF3-001) | 50 to 75% |
| KLSPTVVGL (also called AXIN2-001) | 50 to 75% |

These binders were tested against HLA-A*02 (human) (assay: UV-ligand exchange, anti-b2m ELISA; grade: exchange yield >=20%).

| Binder | peptide exchange yield |
| --- | --- |
| RIISGLVKV | 20 to 50% |
| FLWTEQAHTV | 20 to 50% |
| KQMEPLHAV | 20 to 50% |
| RLIEEIKNV | 20 to 50% |
| FLYPEKDEPT | 20 to 50% |
| FVLPLLGLHEA | 20 to 50% |
| RLIDRIKTV | 20 to 50% |
| KIAGTNAEV | 20 to 50% |
| LTDITKGV | 20 to 50% |
| TLAQQPTAV | 20 to 50% |
| FLIAEYFEHV | 20 to 50% |
| RVPPPPQSV | 20 to 50% |
| KLLAATVLLL | 20 to 50% |
| YLYNNEEQVGL | 20 to 50% |
| FLASESLIKQI | 20 to 50% |
| RLYTMDGITV | 20 to 50% |
| FTIPKLYQL | 20 to 50% |
| TLITDGMRSV | 20 to 50% |
| TMAKESSIIGV | 20 to 50% |
| RLMSALTQV | 20 to 50% |
| YLGEEYVKA | 20 to 50% |
| RLLAKIICL | 20 to 50% |
| GLAEELVRA | 20 to 50% |
| YLSQAADGAKVL | 20 to 50% |
| FLDTPIAKV | 20 to 50% |
| SLVGDIGNVNM | 20 to 50% |
| AMPPPPPQGV | 20 to 50% |
| RIPAYFVTV | 20 to 50% |

Target: HLA-A*02 (human)
Test: UV-ligand exchange, anti-b2m ELISA; grade: exchange yield >=75%
Remark: another data set of the same source

| Binder | peptide exchange yield |
| --- | --- |
| FLFNTENKLLL (also called IDI1-001) | ≥ 75% |
| SLLEEFDFHV (also called USO-001) | ≥ 75% |
| SLLGGNIRL (also called ACSL3-001) | ≥ 75% |
| ALADLTGTVV (also called NCST-001) | ≥ 75% |
| YLITSVELL (also called ACSL4-001) | ≥ 75% |
| ALLKVNQEL (also called SAMM-001) | ≥ 75% |
| KLQDFSDQL (also called APOB-004) | ≥ 75% |
| KLLDNWDSV | ≥ 75% |
| KLAEIVKQV (also called MAPKAPK5-001) | ≥ 75% |
| FLAELAYDL (also called GPC3-001) | ≥ 75% |
| GVMAGDIYSV (also called ADF-012) | ≥ 75% |
| VMAPFTMTI (also called APOB-003) | ≥ 75% |
| ALVEQGFTV (also called APOB-001) | ≥ 75% |
| GLIDTETAMKAV (also called HSD11B1-001) | ≥ 75% |
| VLTEFTREV (also called IPO9-001) | ≥ 75% |
| ALVDTLKFV (also called APOB-002) | ≥ 75% |
| LLYGHTVTV (also called SLC35B2-001) | ≥ 75% |

Each binder was assayed against HLA-A*02 (human) (assay: UV-ligand exchange, anti-b2m ELISA; grade: exchange yield >=50%).

| Binder | peptide exchange yield |
| --- | --- |
| AVLGPLGLQEV (also called THT-001) | 50 to 75% |
| SLLEKELESV (also called DRG2-001) | 50 to 75% |
| ALASVIKEL (also called IFT81-001) | 50 to 75% |
| KLQAGTVFV (also called ALDH1L1-001) | 50 to 75% |
| SLSQELVGV (also called ZNF318-001) | 50 to 75% |
| KMDPVAYRV (also called QAR-001) | 50 to 75% |
| KLLEEATISV (also called DYM-001) | 50 to 75% |
| ALCEENMRGV (also called EEF2-001) | 50 to 75% |
| KLSPTVVGL (also called AXIN2-001) | 50 to 75% |
